The target in assay [1] is T1, MBP-OsTORKD (rice, UniProt Q0DJS1 1896-2465).
T1 chain: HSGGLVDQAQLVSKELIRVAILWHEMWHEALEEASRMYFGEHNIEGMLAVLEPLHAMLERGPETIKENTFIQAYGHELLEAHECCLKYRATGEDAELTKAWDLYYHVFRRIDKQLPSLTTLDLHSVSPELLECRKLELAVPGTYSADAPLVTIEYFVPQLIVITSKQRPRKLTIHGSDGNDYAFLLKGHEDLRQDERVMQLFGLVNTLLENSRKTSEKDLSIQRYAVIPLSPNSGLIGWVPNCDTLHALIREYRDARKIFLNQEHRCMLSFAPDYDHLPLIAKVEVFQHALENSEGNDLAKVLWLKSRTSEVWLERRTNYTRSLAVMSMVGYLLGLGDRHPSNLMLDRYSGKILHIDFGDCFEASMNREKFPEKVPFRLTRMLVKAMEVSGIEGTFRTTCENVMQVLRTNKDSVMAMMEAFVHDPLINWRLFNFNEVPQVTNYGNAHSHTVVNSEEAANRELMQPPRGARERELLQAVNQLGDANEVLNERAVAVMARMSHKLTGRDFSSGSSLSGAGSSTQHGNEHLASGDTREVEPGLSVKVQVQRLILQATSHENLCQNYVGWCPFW
Description: ITC.

Assay [2] concerns the target T1, MBP-OsTORKD. Description: ITC; His-OsFKBP12 in the syringe (10 mM) titrated into MBP-OsNIN8, MBP-OsNIN8m or MBP-OsTORKD in the cell (0.1 mM); 25°C; 20 injections of 2.5 μL, interval 200 s; proteins dialysed in 50 mM potassium phosphate pH 6.4.

In general, Kd refers to the constant that tells how readily two partners part at equilibrium. A low value points to tighter binding.

B1: His-OsFKBP12 (natural protein)
chain: MGFEKTILKAGTGPKPVKGQKVTVHCTGFGKDNDLAKKFWSTKDAGQEPFSFNIGQGSVIKGWDEGVMTMQVGEVARIQCTPDYAYGASGFPAWGIRPNSVLVFEIEVLSAQ
In turn, B1 returned a Kd in assay [1] of 81.8 µM. The molecule further had a stoichiometry N (OsFKBP12 per OsTORKD) in assay [2] of 6.

The values above are taken from publication PMC11732086 (2024).
